Data from PMC4849473.

Experiments:
[1] = biological target: Chp1CD LOOP1B/2B, SUMO tag removed, fluorescently labelled (for MST) (fission yeast (S. pombe)) (UniProt Q10103); experiment: MST; 300 ng fluorescent Chp1CD (SUMO removed) in 20 μl, H3K9me3Nucleosomes titrated (0 to 2.4 μM); 10 mM Tris-HCl pH 7.5, 150 mM NaCl, 0.5 mM DTT, 0.05% Tween-20, 10% glycerol; cubic fit, Kd interpolated at 50% bound
[2] = test system: His6-SUMO-Chp1CD LOOP1B/2B (Schizosaccharomyces pombe); experiment: MST; conditions: H3KC9me3 methyl-lysine analog; X. laevis H2A, H2B, H3, H4; Nucleosome pull-down: 20 mM HEPES pH 7.5, 100 mM KCl, 0.5 mM DTT, 40 mM imidazole, on ice; complex assembly and RNA pull-down: 20 mM HEPES pH 7.5, 75 mM KCl, 0.

Sequence of Chp1CD LOOP1B/2B, SUMO tag removed, fluorescently labelled (for MST) (fission yeast (S. pombe)) (Q10103 15-75 N33A/N35A/W49A/Y50A/D51A): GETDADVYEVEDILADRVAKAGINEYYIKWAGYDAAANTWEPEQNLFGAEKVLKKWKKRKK

Substance	fold reduction in Kd against wild-type Chp1CD [1] [fold]	binding signal (fold reduction in Kd vs wt) [2]
H3K9me3 methyl lysine analog (MLA) nucleosome (complex)	> 5	
H3K9me3 nucleosome (601)		> 5
